Experimental findings from publication doi:10.64898/2025.12.08.693004 (bioRxiv, 2025) are described below.

Assay in all cases: BLI
One assay deals with T1, Human EphB2-His (human, UniProt P29323 19-543).
T1 sequence (looked up): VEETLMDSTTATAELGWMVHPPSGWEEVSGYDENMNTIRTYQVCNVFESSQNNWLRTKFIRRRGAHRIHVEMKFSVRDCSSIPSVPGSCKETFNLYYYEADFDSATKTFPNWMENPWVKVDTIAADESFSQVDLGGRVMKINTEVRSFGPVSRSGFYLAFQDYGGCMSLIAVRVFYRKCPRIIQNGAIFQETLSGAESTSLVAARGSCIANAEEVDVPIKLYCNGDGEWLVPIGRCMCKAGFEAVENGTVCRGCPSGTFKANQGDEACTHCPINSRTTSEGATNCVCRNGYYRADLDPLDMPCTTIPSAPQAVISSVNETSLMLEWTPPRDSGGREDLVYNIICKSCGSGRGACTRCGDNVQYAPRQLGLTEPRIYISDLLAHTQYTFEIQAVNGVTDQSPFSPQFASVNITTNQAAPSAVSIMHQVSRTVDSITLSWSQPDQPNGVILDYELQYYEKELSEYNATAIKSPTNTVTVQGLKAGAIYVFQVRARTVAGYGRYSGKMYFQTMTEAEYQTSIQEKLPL

Another assay concerns the target T2, Human EphB4-His (human, UniProt P54760 16-539).
T2 sequence (looked up): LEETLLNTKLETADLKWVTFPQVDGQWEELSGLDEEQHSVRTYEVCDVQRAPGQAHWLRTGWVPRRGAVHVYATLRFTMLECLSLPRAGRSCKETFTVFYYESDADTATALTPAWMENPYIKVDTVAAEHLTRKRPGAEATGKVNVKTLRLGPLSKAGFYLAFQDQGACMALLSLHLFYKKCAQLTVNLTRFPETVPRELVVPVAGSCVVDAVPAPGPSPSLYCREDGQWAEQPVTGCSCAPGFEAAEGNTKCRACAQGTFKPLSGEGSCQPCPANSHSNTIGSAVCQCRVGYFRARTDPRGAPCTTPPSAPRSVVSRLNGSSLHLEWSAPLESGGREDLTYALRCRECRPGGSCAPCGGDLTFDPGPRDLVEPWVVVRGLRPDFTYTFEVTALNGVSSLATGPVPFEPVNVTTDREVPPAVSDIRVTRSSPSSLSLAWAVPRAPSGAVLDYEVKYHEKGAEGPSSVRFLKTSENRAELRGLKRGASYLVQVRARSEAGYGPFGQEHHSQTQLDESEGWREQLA

In a further assay the target is T3, Human EphB1-His (human, UniProt P54762 18-540).
T3 sequence (looked up): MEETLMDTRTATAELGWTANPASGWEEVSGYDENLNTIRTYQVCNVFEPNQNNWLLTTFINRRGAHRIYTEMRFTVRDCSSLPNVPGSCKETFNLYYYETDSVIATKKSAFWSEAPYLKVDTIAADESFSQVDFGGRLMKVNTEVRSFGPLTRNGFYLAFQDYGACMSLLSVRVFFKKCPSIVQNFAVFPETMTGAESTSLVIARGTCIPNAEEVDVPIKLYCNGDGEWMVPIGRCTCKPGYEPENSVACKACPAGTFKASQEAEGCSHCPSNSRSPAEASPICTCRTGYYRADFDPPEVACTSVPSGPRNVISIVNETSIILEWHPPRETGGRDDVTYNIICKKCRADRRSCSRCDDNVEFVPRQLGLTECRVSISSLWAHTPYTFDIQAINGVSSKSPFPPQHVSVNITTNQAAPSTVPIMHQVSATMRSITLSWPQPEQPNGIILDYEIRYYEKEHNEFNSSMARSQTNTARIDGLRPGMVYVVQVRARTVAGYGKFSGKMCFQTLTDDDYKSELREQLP

The target of another assay is T4, Human EphB3-Fc (human, UniProt P54753 38-550).
T4 sequence (looked up): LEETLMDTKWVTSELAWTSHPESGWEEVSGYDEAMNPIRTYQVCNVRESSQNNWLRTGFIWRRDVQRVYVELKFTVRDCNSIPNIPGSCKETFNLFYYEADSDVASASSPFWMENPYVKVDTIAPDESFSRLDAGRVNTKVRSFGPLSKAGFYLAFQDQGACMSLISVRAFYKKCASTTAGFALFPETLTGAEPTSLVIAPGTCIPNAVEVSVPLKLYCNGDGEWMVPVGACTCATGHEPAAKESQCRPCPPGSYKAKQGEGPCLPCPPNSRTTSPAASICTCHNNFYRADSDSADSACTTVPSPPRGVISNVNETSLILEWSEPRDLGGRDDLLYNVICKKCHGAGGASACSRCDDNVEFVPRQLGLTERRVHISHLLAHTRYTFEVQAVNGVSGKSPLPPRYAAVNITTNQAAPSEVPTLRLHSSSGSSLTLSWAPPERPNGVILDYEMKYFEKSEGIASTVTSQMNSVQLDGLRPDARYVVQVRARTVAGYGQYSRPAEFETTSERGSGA

Another assay deals with T5, Rat EphB1-Fc protein (rat, UniProt P09759 18-538).
T5 sequence (looked up): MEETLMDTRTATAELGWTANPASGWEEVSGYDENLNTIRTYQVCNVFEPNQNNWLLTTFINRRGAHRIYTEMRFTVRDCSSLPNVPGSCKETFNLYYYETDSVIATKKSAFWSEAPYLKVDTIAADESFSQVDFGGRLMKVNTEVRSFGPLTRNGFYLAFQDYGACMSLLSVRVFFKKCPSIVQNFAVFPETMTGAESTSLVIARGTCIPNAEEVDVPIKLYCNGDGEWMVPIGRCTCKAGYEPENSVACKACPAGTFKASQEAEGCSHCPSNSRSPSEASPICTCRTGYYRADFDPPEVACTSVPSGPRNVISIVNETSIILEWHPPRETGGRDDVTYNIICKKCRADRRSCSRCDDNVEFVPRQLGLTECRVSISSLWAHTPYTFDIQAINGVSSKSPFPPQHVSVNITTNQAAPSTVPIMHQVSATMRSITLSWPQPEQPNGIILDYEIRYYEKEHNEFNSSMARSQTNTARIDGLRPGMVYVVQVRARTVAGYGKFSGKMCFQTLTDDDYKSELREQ

B1: Human EphrinB2-Fc (Fc fusion, UniProt P52799 28-229, looked up)
chain: IVLEPIYWNSSNSKFLPGQGLVLYPQIGDKLDIICPKVDSKTVGQYEYYKVYMVDKDQADRCTIKKENTPLLNCAKPDQDIKFTIKFQEFSPNLWGLEFQKNKDYYIISTSNGSLEGLDNQEGGVCQTRAMKILMKVGQDASSAGSTRNKDPTRRPELEAGTNGRSSTTSPFVKPNPGSSTDGNSAGHSGNNILGSEVALFA
In the case of B1, the binding result with Human EphB2-His, with Human EphB4-His and in the assay with Human EphB1-His was “binds” each time.

B2: Mouse EphrinB2-His protein (ligand, UniProt P52800 29-232, looked up)
chain: RSIVLEPIYWNSSNSKFLPGQGLVLYPQIGDKLDIICPKVDSKTVGQYEYYKVYMVDKDQADRCTIKKENTPLLNCARPDQDVKFTIKFQEFSPNLWGLEFQKNKDYYIISTSNGSLEGLDNQEGGVCQTRAMKILMKVGQDASSAGSARNHGPTRRPELEAGTNGRSSTTSPFVKPNPGSSTDGNSAGHSGNNLLGSEVALFA
For the molecule B2, the binding result in the assay with Human EphB3-Fc and in the assay with Rat EphB1-Fc protein was “binds” in each case.
